Test results as given in patent publication US20200024330A1.

Key:
[1] = target: HIV-1 Env of isolate PVO.4 (subtype B) (HIV-1); assay: cell-based or functional assay
[2] = target: HIV-1 Env of isolate MGRM-Chronic-B-024 (subtype B) (HIV-1); assay: cell-based or functional assay
[3] = target: HIV-1 Env of isolate MGRM-F1-017 (clade F), on pseudovirus (HIV-1); assay: cell-based or functional assay
[4] = target: HIV-1 envelope glycoprotein (Env) of isolate MGRM-Chronic-B-003, on pseudovirus (HIV-1); assay: cell-based or functional assay
[5] = target: HIV-1 Env of isolate MGRM-D-029 (HIV-1); assay: cell-based or functional assay
[6] = target: HIV-1 envelope glycoprotein (Env) of isolate MGRM-Chronic-B-001, on pseudovirus (HIV-1); assay: cell-based or functional assay
[7] = target: JR-FL gp120 ΔV3 (HIV-1 (isolate JR-FL)); assay: ELISA on coated gp120; EC50 by nonlinear regression
[8] = target: Endo H treated JR-FL gp120 (HIV-1 (isolate JR-FL)); assay: as above
[9] = target: HIV-1 JR-CSF Env E321aA (HIV-1 isolate JR-CSF) (UniProt P20871); assay: cell-based or functional assay
[10] = target: HIV-1 JR-CSF Env I309A (HIV-1 JR-CSF) (UniProt P20871); assay: cell-based or functional assay
[11] = target: HIV-1 JR-CSF Env R315A (HIV-1 isolate JR-CSF) (UniProt P20871); assay: cell-based or functional assay
[12] = target: HIV-1 JR-CSF Env T413A (HIV-1 (isolate JR-CSF)) (UniProt P20871); assay: cell-based or functional assay
[13] = target: HIV-1 JR-CSF Env D325A (HIV-1 isolate JR-CSF) (UniProt P20871); assay: cell-based or functional assay
[14] = target: HIV-1 JR-CSF Env T202A (HIV-1 JR-CSF) (UniProt P20871); assay: cell-based or functional assay
[15] = target: HIV-1 Env of isolate TR0.11 (HIV-1); assay: cell-based or functional assay
[16] = target: HIV-1 Env of isolate AC10 (HIV-1); assay: cell-based or functional assay
[17] = target: HIV-1 Env of isolate ZM249 (HIV-1); assay: cell-based or functional assay
[18] = target: aMLV envelope protein on pseudotyped virus (negative control) (aMLV); assay: cell-based or functional assay
[19] = target: HIV-1 Env of isolate ZM214 (HIV-1); assay: cell-based or functional assay
[20] = target: HIV-1 Env of isolate REJ04541 (HIV-1); assay: cell-based or functional assay
[21] = target: HIV-1 NL43 Env (clade B pseudovirus) (HIV-1); assay: cell-based or functional assay
[22] = target: HIV-1 92UG005 Env (clade D pseudovirus) (HIV-1); assay: cell-based or functional assay
[23] = target: HIV-1 92BR020 Env (clade B pseudovirus) (HIV-1); assay: cell-based or functional assay
[24] = target: HIV-1 93IN905 Env (clade C pseudovirus) (HIV-1); assay: cell-based or functional assay
[25] = target: HIV-1 APV6 Env (clade B pseudovirus) (HIV-1); assay: cell-based or functional assay
[26] = target: HIV-1 Env of isolate CMU02 (clade AE) (HIV-1); assay: cell-based or functional assay
[27] = target: HIV-1 Env of isolate MGRM-C-026 (clade C) (HIV-1); assay: cell-based or functional assay

Chain of 1443_C16 (PG16) (TCN-116) (antibody) (VH): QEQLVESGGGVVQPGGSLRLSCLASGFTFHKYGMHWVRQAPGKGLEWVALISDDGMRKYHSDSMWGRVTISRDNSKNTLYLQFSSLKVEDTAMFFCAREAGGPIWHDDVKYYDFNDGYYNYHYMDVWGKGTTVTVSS
Chain of 1443_C16 (PG16) (TCN-116) (antibody) (VL): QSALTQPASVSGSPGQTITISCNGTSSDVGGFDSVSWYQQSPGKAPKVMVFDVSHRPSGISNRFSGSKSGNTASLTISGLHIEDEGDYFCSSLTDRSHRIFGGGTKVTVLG

**Q.** What does the source list for PGV04 (antibody)?
**A.** IC50 (µg/mL), pseudovirus neutralization [1]: 0.454 µg/mL; IC50 (µg/mL), pseudovirus neutralization [2]: 2.52 µg/mL; IC50 (µg/mL), single-round pseudovirus neutralization [3]: 2.38 µg/mL; IC50, pseudovirus neutralization [4]: 0.258 µg/mL; IC50 (µg/mL), pseudovirus neutralization [5]: 1.56 µg/mL; IC50, pseudovirus neutralization [6]: 0.048 µg/mL

**Q.** What does the source list for PGT-121 (antibody)?
**A.** EC50 [7]: > 10 µg/mL; EC50 [8]: > 10 µg/mL; Fold IC50 increase relative to wild-type [9]: 0.3 fold; Fold IC50 increase relative to wild-type [10]: 1.1 fold; Fold IC50 increase relative to wild-type [11]: 0.9 fold; Fold IC50 increase relative to wild-type [12]: 0.5 fold; Fold IC50 increase relative to wild-type [13]: 2 fold; Fold IC50 increase relative to wild-type [14]: 1.2 fold

**Q.** 1443_C16 (PG16) (TCN-116) (antibody) was tested. Which IC50, pseudovirus neutralization (TZM-bl) [15] did it give?
**A.** The IC50, pseudovirus neutralization (TZM-bl) was 3.61 µg/mL.

**Q.** And the IC50, pseudovirus neutralization (TZM-bl) [16]?
**A.** Its IC50, pseudovirus neutralization (TZM-bl) is under 0.01 µg/mL.

**Q.** And the IC50, pseudovirus neutralization (TZM-bl) [17]?
**A.** The IC50, pseudovirus neutralization (TZM-bl) was under 0.01 µg/mL.

**Q.** What about the IC50, pseudovirus neutralization, 1 hour Virus/Ab Incubation [18] of the same substance?
**A.** Its IC50, pseudovirus neutralization, 1 hour Virus/Ab Incubation is over 50 µg/mL.

**Q.** And the IC50, pseudovirus neutralization, 18 hour Virus/Ab Incubation [18]?
**A.** Its IC50, pseudovirus neutralization, 18 hour Virus/Ab Incubation is over 50 µg/mL.

**Q.** And the IC50, pseudovirus neutralization (TZM-bl) [19]?
**A.** The IC50, pseudovirus neutralization (TZM-bl) was over 25 µg/mL.

**Q.** And the IC50, pseudovirus neutralization (TZM-bl) [20]?
**A.** The IC50, pseudovirus neutralization (TZM-bl) was under 0.01 µg/mL.

**Q.** Which Neutralization by PGT-122, IC50 [21] does the source give for 4877_D15 (PGT-122) (antibody) here?
**A.** Its Neutralization by PGT-122, IC50 is over 10 µg/mL.

**Q.** And the Neutralization by PGT-122, IC80 [21]?
**A.** The Neutralization by PGT-122, IC80 was over 10 µg/mL.

**Q.** What about the Neutralization by PGT-122, IC90 [21] of the same substance?
**A.** Its Neutralization by PGT-122, IC90 is over 10 µg/mL.

**Q.** And the Neutralization by PGT-122, IC95 [21]?
**A.** The Neutralization by PGT-122, IC95 was over 10 µg/mL.

**Q.** And the Neutralization by PGT-122, IC50 [22]?
**A.** The Neutralization by PGT-122, IC50 was over 10 µg/mL.

**Q.** And the Neutralization by PGT-122, IC80 [22]?
**A.** The Neutralization by PGT-122, IC80 was over 10 µg/mL.

**Q.** And the Neutralization by PGT-122, IC90 [22]?
**A.** Its Neutralization by PGT-122, IC90 is over 10 µg/mL.

**Q.** What about the Neutralization by PGT-122, IC95 [22] of the same substance?
**A.** Its Neutralization by PGT-122, IC95 is over 10 µg/mL.

**Q.** What about the Neutralization by PGT-122, IC50 [23] of the same substance?
**A.** The Neutralization by PGT-122, IC50 was 0.0337 µg/mL.

**Q.** And the Neutralization by PGT-122, IC80 [23]?
**A.** Its Neutralization by PGT-122, IC80 is 0.0929 µg/mL.

**Q.** What about the Neutralization by PGT-122, IC90 [23] of the same substance?
**A.** The Neutralization by PGT-122, IC90 was 0.168 µg/mL.

**Q.** What about the Neutralization by PGT-122, IC95 [23] of the same substance?
**A.** Its Neutralization by PGT-122, IC95 is 0.289 µg/mL.

**Q.** And the Neutralization by PGT-122, IC50 [24]?
**A.** The Neutralization by PGT-122, IC50 was 0.0138 µg/mL.

**Q.** What about the Neutralization by PGT-122, IC80 [24] of the same substance?
**A.** Its Neutralization by PGT-122, IC80 is 0.0505 µg/mL.

**Q.** What about the Neutralization by PGT-122, IC90 [24] of the same substance?
**A.** Its Neutralization by PGT-122, IC90 is 0.108 µg/mL.

**Q.** What about the Neutralization by PGT-122, IC95 [24] of the same substance?
**A.** Its Neutralization by PGT-122, IC95 is 0.217 µg/mL.

**Q.** And the Neutralization by PGT-122, IC50 [25]?
**A.** The Neutralization by PGT-122, IC50 was 0.0851 µg/mL.

**Q.** And the Neutralization by PGT-122, IC80 [25]?
**A.** Its Neutralization by PGT-122, IC80 is 0.351 µg/mL.

**Q.** And the Neutralization by PGT-122, IC90 [25]?
**A.** The Neutralization by PGT-122, IC90 was 0.779 µg/mL.

**Q.** And the Neutralization by PGT-122, IC95 [25]?
**A.** The Neutralization by PGT-122, IC95 was 1.55 µg/mL.

**Q.** What does the source list for 1495_C14 (PGC14) (antibody)?
**A.** IC50, pseudovirus neutralization, 1 hour Virus/Ab Incubation [18]: > 50 µg/mL; IC50, pseudovirus neutralization, 18 hour Virus/Ab Incubation [18]: > 50 µg/mL

**Q.** What does the source list for 5147_N06 (PGT-130) (antibody)?
**A.** neutralization IC50 [26]: > 10 µg/mL; neutralization IC80 [26]: > 10 µg/mL; neutralization IC90 [26]: > 10 µg/mL; neutralization IC95 [26]: > 10 µg/mL; neutralization IC50 [27]: 0.0173 µg/mL; neutralization IC80 [27]: 0.263 µg/mL; neutralization IC90 [27]: 1.32 µg/mL; neutralization IC95 [27]: 6.13 µg/mL
